The text below walks through data of publication PMC10139975 (iScience, 2023).

This experiment has as its target T1, GPR110 F663S mutant (C-terminal HA tag) (human, UniProt Q5T601-1 20-910, F663S).
T1 sequence (looked up): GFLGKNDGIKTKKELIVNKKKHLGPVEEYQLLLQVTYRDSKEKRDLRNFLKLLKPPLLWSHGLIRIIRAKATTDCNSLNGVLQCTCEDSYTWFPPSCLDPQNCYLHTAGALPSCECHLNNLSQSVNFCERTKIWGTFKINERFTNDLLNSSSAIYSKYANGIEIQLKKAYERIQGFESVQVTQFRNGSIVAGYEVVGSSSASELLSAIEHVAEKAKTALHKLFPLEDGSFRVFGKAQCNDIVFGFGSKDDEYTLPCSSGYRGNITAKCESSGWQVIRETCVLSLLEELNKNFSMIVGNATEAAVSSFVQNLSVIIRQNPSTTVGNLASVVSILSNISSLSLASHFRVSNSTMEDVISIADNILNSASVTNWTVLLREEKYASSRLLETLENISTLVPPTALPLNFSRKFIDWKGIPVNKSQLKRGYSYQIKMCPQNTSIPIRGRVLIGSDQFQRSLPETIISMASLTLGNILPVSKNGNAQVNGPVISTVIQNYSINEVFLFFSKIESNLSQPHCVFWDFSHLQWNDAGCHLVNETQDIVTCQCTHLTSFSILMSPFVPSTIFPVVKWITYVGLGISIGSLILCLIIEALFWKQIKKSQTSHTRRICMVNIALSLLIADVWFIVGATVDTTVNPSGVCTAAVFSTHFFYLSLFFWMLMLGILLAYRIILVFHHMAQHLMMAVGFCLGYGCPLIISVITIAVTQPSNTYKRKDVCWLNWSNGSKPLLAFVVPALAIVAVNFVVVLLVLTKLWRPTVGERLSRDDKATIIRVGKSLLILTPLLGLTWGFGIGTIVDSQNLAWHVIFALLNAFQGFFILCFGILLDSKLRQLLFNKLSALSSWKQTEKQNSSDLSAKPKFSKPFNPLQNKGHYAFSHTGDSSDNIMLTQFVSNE
In words: cross-linking + affinity purification with mass spectrometry.

B1: occludin (tight junction protein) (natural protein, human (endogenous in HEK293), UniProt Q16625 1-522, looked up)
chain: MSSRPLESPPPYRPDEFKPNHYAPSNDIYGGEMHVRPMLSQPAYSFYPEDEILHFYKWTSPPGVIRILSMLIIVMCIAIFACVASTLAWDRGYGTSLLGGSVGYPYGGSGFGSYGSGYGYGYGYGYGYGGYTDPRAAKGFMLAMAAFCFIAALVIFVTSVIRSEMSRTRRYYLSVIIVSAILGIMVFIATIVYIMGVNPTAQSSGSLYGSQIYALCNQFYTPAATGLYVDQYLYHYCVVDPQEAIAIVLGFMIIVAFALIIFFAVKTRRKMDRYDKSNILWDKEHIYDEQPPNVEEWVKNVSAGTQDVPSPPSDYVERVDSPMAYSSNGKVNDKRFYPESSYKSTPVPEVVQELPLTSPVDDFRQPRYSSGGNFETPSKRAPAKGRAGRSKRTEQDHYETDYTTGGESCDELEEDWIREYPPITSDQQRQLYKRNFDTGLQEYKSLQSELDEINKELSRLDKELDDYREESEEYMAAADEYNRLKQVKGSADYKSKKNHCKQLKSKLSHIKKMVGDYDRQKT
For B1, the “fold less than with WT GPR110 (label-free MS quantitation)” value came to 5 fold.
